Experimental findings from IntAct's records for PubMed 25332407 are described below.

The chains are these.
B1: Nuclear distribution protein nudE homolog 1 (Homo sapiens), Q9NXR1 (parent)
chain: MEDSGKTFSSEEEEANYWKDLAMTYKQRAENTQEELREFQEGSREYEAELETQLQQIETRNRDLLSENNRLRMELETIKEKFEVQHSEGYRQISALEDDLAQTKAIKDQLQKYIRELEQANDDLERAKRATIMSLEDFEQRLNQAIERNAFLESELDEKENLLESVQRLKDEARDLRQELAVQQKQEKPRTPMPSSVEAERTDTAVQATGSVPSTPIAHRGPSSSLNTPGSFRRGLDDSTGGTPLTPAARISALNIVGDLLRKVGALESKLASCRNLVYDQSPNRTGGPASGRSSKNRDGGERRPSSTSVPLGDKGLDTSCRWLSKSTTRSSSSC

Variants of B1 are the subject of the test. The note with it: with 1433e_human YWHAE.
Turning to MEDSGKTFSSEEEEANYWKDLAMTYKQRAENTQEELREFQEGSREYEAELETQLQQIETRNRDLLSENNRLRMELETIKEKFEVQHSEGYRQISALEDDLAQTKAIKDQLQKYIRELEQANDDLERAKRATIMSLEDFEQRLNQAIERNAFLESELDEKENLLESVQRLKDEARDLRQELAVQQKQEKPRTPMPSSVEAERTDTAVQATGSVPSAPIAHRGPSSSLNTPGSFRRGLDDSTGGTPLTPAARISALNIVGDLLRKVGALESKLASCRNLVYDQSPNRTGGPASGRSSKNRDGGERRPSSTSVPLGDKGLDTSCRWLSKSTTRSSSSC [T215A], the “effect of a mutation on the interaction” value is recorded as “decreasing interaction strength”.

Take MEDSGKTFSSEEEEANYWKDLAMTYKQRAENTQEELREFQEGSREYEAELETQLQQIETRNRDLLSENNRLRMELETIKEKFEVQHSEGYRQISALEDDLAQTKAIKDQLQKYIRELEQANDDLERAKRATIMSLEDFEQRLNQAIERNAFLESELDEKENLLESVQRLKDEARDLRQELAVQQKQEKPRTPMPSSVEAERTDTAVQATGSVPATPIAHRGPSSSLNTPGSFRRGLDDSTGGTPLTPAARISALNIVGDLLRKVGALESKLASCRNLVYDQSPNRTGGPASGRSSKNRDGGERRPSSTSVPLGDKGLDTSCRWLSKSTTRSSSSC [S214A]: the “effect of a mutation on the interaction” value is reported as “with no effect”.

On to MEDSGKTFSSEEEEANYWKDLAMTYKQRAENTQEELREFQEGSREYEAELETQLQQIETRNRDLLSENNRLRMELETIKEKFEVQHSEGYRQISALEDDLAQTKAIKDQLQKYIRELEQANDDLERAKRATIMSLEDFEQRLNQAIERNAFLESELDEKENLLESVQRLKDEARDLRQELAVQQKQEKPRTPMPSSVEAERTDTAVQATGSVPFTPIAHRGPSSSLNTPGSFRRGLDDSTGGTPLTPAARISALNIVGDLLRKVGALESKLASCRNLVYDQSPNRTGGPASGRSSKNRDGGERRPSSTSVPLGDKGLDTSCRWLSKSTTRSSSSC [S214F], for which the “effect of a mutation on the interaction” value is reported as “decreasing interaction strength”.

As for MEDSGKTFSSEEEEANYWKDLAMTYKQRAENTQEELREFQEGSREYEAELETQLQQIETRNRDLLSENNRLRMELETIKEKFEVQHSEGYRQISALEDDLAQTKAIKDQLQKYIRELEQANDDLERAKRATIMSLEDFEQRLNQAIERNAFLESELDEKENLLESVQRLKDEARDLRQELAVQQKQEKPRTPMPSSVEAERTDTAVQATGSVPSTPIAHRGPSSSLNTPGSFRCGLDDSTGGTPLTPAARISALNIVGDLLRKVGALESKLASCRNLVYDQSPNRTGGPASGRSSKNRDGGERRPSSTSVPLGDKGLDTSCRWLSKSTTRSSSSC [R234C], the “effect of a mutation on the interaction” value is recorded as “with no effect”.
